Laboratory results from the supplement of paper PMC10126150.
± gives the standard deviation of the averaged measurements.

The sequences below were run on ATP (assay: switch fluorescence ratio, 500 uM ATP over buffer (Cy3 cluster intensity, sum of 5 cycles each) (fold (ratio)); higher = stronger signal-on switching upon ATP binding; sequences stand for … in TCGTCGGCAGCGTCAGATGTGTATAAGAGACAGTTTTTTTTTTTTTTTTTTTTTTTTT…TC). Settings: aptamer strand: ATP DNA aptamer (quencher-CACCTGGGGGAGTATTGCGGAGGAAGG + anchor), 100 nM annealed; ATP concentration: 500 uM.
In short: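 Clusters with intensities outside 100-1000 RFU were excluded. The remaining Cy3-labelled switching-strand clusters on a modified Illumina MiSeq flow-cell had been annealed to 100 nM quencher-labelled ATP aptamer and imaged in selection buffer, then after 15 min with 500 uM ATP at 22 °C, for five cycles separated by NaOH stripping and re-annealing. The fluorescence ratio, averaged per switch-domain sequence, is each cluster's summed target-cycle Cy3 intensity over its summed buffer-cycle Cy3 intensity.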
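Further: ATP exposure 15 min at 22 °C before imaging.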

| Sequence | switch fluorescence ratio |
| --- | --- |
| AGAGGGTCCT | 1.03 ± 0.034 |
| AGAGGGTGTG | 0.992 ± 0.034 |
| AGAGGTATCG | 0.995 ± 0.019 |
| AGAGGTTGTT | 0.995 ± 0.038 |
| AGAGTCAATG | 1.04 ± 0.023 |
| AGAGTCCCTT | 1 ± 0.036 |
| AGAGTCTGGT | 0.965 ± 0.03 |
| AGAGTCTTTT | 0.9934 ± 0.0016 |
| AGAGTGGTTA | 0.9864 ± 0.0033 |
| AGAGTTGGCT | 0.992 ± 0.021 |
| AGAGTTGGTG | 0.997 ± 0.031 |
| AGAGTTGTGG | 0.982 ± 0.024 |
| AGAGTTTGTG | 0.978 ± 0.015 |
| AGAGTTTTTA | 1.01 ± 0.035 |
| AGATAAAATT | 0.98 ± 0.056 |
| AGATAATTAG | 1 ± 0.023 |
| AGATACAGTT | 1.02 ± 0.034 |
| AGATACATAT | 1.05 ± 0.0056 |
| AGATAGAAGG | 0.995 ± 0.012 |
| AGATAGATCT | 0.9871 ± 0.0059 |
| AGATATCAAC | 1.04 ± 0.021 |
| AGATATCATT | 0.9848 ± 0.0086 |
| AGATATCCGC | 1.15 ± 0.05 |
| AGATATGAGA | 1.031 ± 0.0075 |
| AGATATGTTT | 0.986 ± 0.025 |

| Sequence | switch fluorescence ratio |
| --- | --- |
| AGATATTTTT | 0.975 ± 0.023 |
| AGATCAAGGT | 1.02 ± 0.013 |
| AGATCATGAG | 0.9708 ± 0.0079 |
| AGATCGAAGG | 1.03 ± 0.018 |
| AGATCGACGG | 1.014 ± 0.0095 |
| AGATCGGGTG | 1 ± 0.021 |
| AGATGGCCGG | 1 ± 0.065 |
| AGATGGGGCC | 1 ± 0.027 |
| AGATGGGGTA | 0.9705 ± 0.0077 |
| AGATGGGGTG | 1.23 ± 0.35 |
| AGATGGGGTT | 1.01 ± 0.028 |
| AGATGGTCAC | 1.032 ± 0.0086 |
| AGATGTGCCT | 1.01 ± 0.045 |
| AGATGTTAGC | 0.983 ± 0.047 |
| AGATGTTAGG | 0.981 ± 0.029 |
| AGATTGAGAA | 0.998 ± 0.028 |
| AGATTGATGG | 0.9848 ± 0.0026 |
| AGATTGGAGA | 1 ± 0.039 |
| AGATTGGGGC | 0.974 ± 0.013 |
| AGATTGGTTG | 0.985 ± 0.012 |
| AGATTTATGT | 1.01 ± 0.047 |
| AGATTTTTCA | 1 ± 0.021 |
| AGATTTTTCG | 1.04 ± 0.024 |
| AGATTTTTTT | 0.996 ± 0.031 |
| AGCAAAAGGA | 1.16 ± 0.22 |

| Sequence | switch fluorescence ratio |
| --- | --- |
| AGCAACCGGT | 1.1 ± 0.016 |
| AGCAATATGG | 2.49 ± 0.051 |
| AGCACATGTC | 1.07 ± 0.027 |
| AGCAGAAATG | 0.9979 ± 0.0074 |
| AGCAGAGTGC | 1.02 ± 0.055 |
| AGCAGATAGG | 1.03 ± 0.079 |
| AGCAGGCCGG | 0.976 ± 0.025 |
| AGCAGGGAGC | 1.01 ± 0.021 |
| AGCAGTGTCT | 1.04 ± 0.02 |
| AGCATAGAGG | 1.03 ± 0.03 |
| AGCATATATG | 1.02 ± 0.015 |
| AGCATGAGAT | 1.03 ± 0.039 |
| AGCATTGAGG | 0.984 ± 0.0067 |
| AGCATTGTTT | 0.985 ± 0.023 |
| AGCCAGAGGG | 1.005 ± 0.0055 |
| AGCCATAAGG | 1.012 ± 0.0061 |
| AGCCATAGTC | 1.113 ± 0.0056 |
| AGCCATTAGC | 0.992 ± 0.048 |
| AGCCCGCCGG | 1.03 ± 0.031 |
| AGCCGGACGC | 1.066 ± 0.0075 |
| AGCCGGCCTG | 1.02 ± 0.017 |
| AGCCGTTTTT | 0.973 ± 0.038 |
| AGCCTAATGG | 0.995 ± 0.041 |
| AGCCTAGTTC | 1.01 ± 0.026 |
| AGCCTATACT | 1.6 ± 0.16 |

| Sequence | switch fluorescence ratio |
| --- | --- |
| AGCCTCGGTT | 1.0014 ± 0.00098 |
| AGCCTTTTTC | 1.08 ± 0.091 |
| AGCGAAAAGG | 1 ± 0.041 |
| AGCGACGGAC | 1.42 ± 0.1 |
| AGCGACTGTA | 1.15 ± 0.22 |
| AGCGAGACGT | 1.12 ± 0.034 |
| AGCGAGGGGC | 1.02 ± 0.035 |
| AGCGATTGCC | 1.01 ± 0.016 |
| AGCGCCAACA | 1.02 ± 0.017 |
| AGCGCCGCGT | 1.09 ± 0.13 |
| AGCGCCTCAG | 1.003 ± 0.0081 |
| AGCGCGGCGC | 1.01 ± 0.051 |
| AGCGCTATTT | 1.04 ± 0.065 |
| AGCGGAGTGA | 1.007 ± 0.0093 |
| AGCGGGGCGT | 1.01 ± 0.014 |
| AGCGGGGTCG | 1 ± 0.011 |
| AGCGGTGGTT | 1.02 ± 0.012 |
| AGCGGTTCAC | 1.018 ± 0.0029 |
| AGCGGTTGGG | 0.9966 ± 0.0071 |
| AGCGGTTTCG | 0.986 ± 0.023 |
| AGCGTACTTT | 1.12 ± 0.018 |
| AGCGTCAACG | 0.954 ± 0.015 |
| AGCGTCTGGG | 1.0291 ± 0.00058 |
| AGCGTGTGCG | 0.989 ± 0.055 |
| AGCTAGAGCT | 0.963 ± 0.033 |

| Sequence | switch fluorescence ratio |
| --- | --- |
| AGCTAGGAGC | 0.972 ± 0.021 |
| AGCTAGGCGC | 1.01 ± 0.027 |
| AGCTAGTTTA | 0.998 ± 0.0036 |
| AGCTATAAGG | 0.982 ± 0.021 |
| AGCTATCACG | 1 ± 0.032 |
| AGCTCTAAAT | 1.04 ± 0.068 |
| AGCTGACCGA | 1.083 ± 0.0037 |
| AGCTGAGGAG | 1.0063 ± 7.3e-05 |
| AGCTGATCTA | 0.986 ± 0.022 |
| AGCTGCCCCA | 1.18 ± 0.13 |
| AGCTGGAGGT | 0.992 ± 0.026 |
| AGCTGGGCCT | 1.04 ± 0.011 |
| AGCTGGGGTT | 0.9962 ± 0.0062 |
| AGCTGTACGG | 1.029 ± 0.0084 |
| AGCTGTTTAC | 1.09 ± 0.016 |
| AGCTTAGGGC | 0.989 ± 0.03 |
| AGCTTAGGGG | 1.07 ± 0.11 |
| AGCTTCGTCT | 1.04 ± 0.065 |
| AGCTTCTAAC | 1.025 ± 0.0036 |
| AGCTTGATTT | 1.01 ± 0.039 |
| AGCTTGGACC | 1.009 ± 0.0084 |
| AGCTTGGGGG | 0.995 ± 0.027 |
| AGCTTTTTGT | 0.947 ± 0.023 |
| AGGAAAAGGG | 1.14 ± 0.1 |
| AGGAAAATGT | 0.984 ± 0.041 |

| Sequence | switch fluorescence ratio |
| --- | --- |
| AGGAAAGTCT | 1.02 ± 0.066 |
| AGGAAATGTT | 1 ± 0.051 |
| AGGAAATTTT | 1.01 ± 0.025 |
| AGGAACGTAC | 1.61 ± 0.057 |
| AGGAACTTTT | 1.42 ± 0.56 |
| AGGAAGAGAG | 1.016 ± 0.0083 |
| AGGAAGATCC | 1.002 ± 0.0083 |
| AGGAAGGGGG | 0.992 ± 0.034 |
| AGGAAGTGCC | 1.032 ± 0.0062 |
| AGGAAGTGGT | 0.9671 ± 0.006 |
| AGGAAGTGTG | 0.9869 ± 0.0079 |
| AGGAATAAGT | 1.11 ± 0.16 |
| AGGAATCTAG | 0.967 ± 0.03 |
| AGGAATGGGA | 1.02 ± 0.02 |
| AGGAATGGTT | 0.992 ± 0.041 |
| AGGAATTTTC | 0.994 ± 0.032 |
| AGGACATTGG | 0.966 ± 0.023 |
| AGGACGAGCA | 1.12 ± 0.015 |
| AGGACGGGGA | 0.99 ± 0.019 |
| AGGACGTTTT | 0.962 ± 0.01 |
| AGGACTTGTG | 0.972 ± 0.023 |
| AGGACTTTGG | 1.05 ± 0.056 |
| AGGAGACAAG | 0.948 ± 0.053 |
| AGGAGATACT | 1.09 ± 0.15 |
| AGGAGATTTT | 0.957 ± 0.032 |

| Sequence | switch fluorescence ratio |
| --- | --- |
| AGGAGCTGCG | 0.998 ± 0.038 |
| AGGAGGACGG | 1.01 ± 0.042 |
| AGGAGGATCG | 0.97 ± 0.079 |
| AGGAGGCCAG | 0.969 ± 0.05 |
| AGGAGGCGTT | 0.992 ± 0.029 |
| AGGAGGGACT | 1 ± 0.041 |
| AGGAGGGAG | 1.003 ± 0.0093 |
| AGGAGGGGGA | 1.03 ± 0.045 |
| AGGAGGGGT | 1.02 ± 0.07 |
| AGGAGTATTT | 1 ± 0.024 |
| AGGAGTGGTG | 0.994 ± 0.034 |
| AGGAGTGTTT | 1 ± 0.037 |
| AGGAGTTTCG | 1.01 ± 0.044 |
| AGGATACCGC | 1.12 ± 0.048 |
| AGGATAGGGT | 1.02 ± 0.05 |
| AGGATCATGT | 0.966 ± 0.042 |
| AGGATGAAAT | 0.992 ± 0.051 |
| AGGATGGGCG | 0.928 ± 0.039 |
| AGGATTAACA | 1.05 ± 0.013 |
| AGGATTAGGG | 1 ± 0.033 |
| AGGATTATTG | 0.991 ± 0.017 |
| AGGATTGAAC | 0.991 ± 0.018 |
| AGGATTGGTG | 0.999 ± 0.052 |
| AGGATTTATA | 0.991 ± 0.086 |
| AGGCAAAGGG | 0.995 ± 0.044 |

| Sequence | switch fluorescence ratio |
| --- | --- |
| AGGCAACGGT | 1.01 ± 0.012 |
| AGGCAATATG | 1.19 ± 0.018 |
| AGGCAATTTG | 1 ± 0.071 |
| AGGCACCAAC | 1.16 ± 0.044 |
| AGGCACGACG | 0.9561 ± 0.0074 |
| AGGCACGGGG | 0.9932 ± 0.0087 |
| AGGCACTTTT | 1.04 ± 0.015 |
| AGGCCCACGG | 1.006 ± 0.0067 |
| AGGCCCGGAG | 1.05 ± 0.045 |
| AGGCCGAGGG | 0.985 ± 0.012 |
| AGGCCGATGG | 0.983 ± 0.021 |
| AGGCCGGTGC | 1.04 ± 0.03 |
| AGGCCGGTTT | 1.017 ± 0.0061 |
| AGGCCTCAGA | 0.973 ± 0.015 |
| AGGCCTCTGT | 0.99 ± 0.011 |
| AGGCGATATA | 1 ± 0.024 |
| AGGCGATGCG | 0.994 ± 0.097 |
| AGGCGCACGG | 1.01 ± 0.029 |
| AGGCGGCGG | 0.975 ± 0.022 |
| AGGCGGGGGC | 1.03 ± 0.068 |
| AGGCGGTGTG | 0.973 ± 0.036 |
| AGGCGTATAC | 1.79 ± 0.18 |
| AGGCGTGCTT | 0.987 ± 0.032 |
| AGGCGTGGGA | 1.001 ± 0.0083 |
| AGGCGTGTCA | 1.004 ± 0.0083 |
